Experimental data: the supplement of paper PMC9170038

Tested on: MS2 coat protein
Experiment: apparent KD of MS2 coat protein; designed switch direction (-1 OFF switch, 1 ON switch): -1; higher = weaker reporter binding
In short: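 Apparent KD, taken as the median over clusters for each design, was obtained by curve-fitting normalised cluster fluorescence. Designed RNA switches had been transcribed on Illumina chips by stalled E. coli RNA polymerase and titrated with SNAP-549-labelled MS2 coat protein, doubling from 0.7 or 1.5 nM to 3 µM.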

[1] = Eterna round: R95, input ligand: microRNA oligo, concentration not stated
[2] = input ligand: microRNA oligo, concentration not stated
[3] = Eterna round: R95, input ligand: FMN 200 uM
[4] = Eterna round: R95, input ligand: none

Sequence	apparent KD of MS2 coat protein (input ligand: FMN 200 uM) [nM]	apparent KD of MS2 coat protein (input ligand: none) [nM]	apparent KD of MS2 coat protein [1] [nM]	apparent KD of MS2 coat protein [2] [nM]	apparent KD of MS2 coat protein [3] [nM]	apparent KD of MS2 coat protein [4] [nM]
UACACUGCAUGAGGAUCAAACAUGAGGAUCACCCAUGUAUAGCAAGCUUUUUGCGCGUCUUAUAAUUAUGUAGUGUA [Electric Eye 19 - Jieux - Sensor, turn-off variant 1] (Eterna round: R97, puzzle: Sensor, turn-off variant 1)	15.8	15.4				
ACACAGCGAGGAUAUACAUGAGGAUCACCCAUGUGGCGGCCGUUACGGUAGGACUAGUGUAGAAGGCGCAUUGG [EX3 #34] (Eterna round: R97, puzzle: Exclusion 3)	203	247				
GCCGAUUAAGUGAGGAUAUACCUAUGGAUACAUAGGUAGAAGGCACAUGAGGAUCACCCAUGUUCCUCAACGGC [Fiskers BMX 4 - 6] (puzzle: Brourd's mod of Exclusion 4)			15			
CAAUAGCGAGGAUAUACAUGAGGAUCACCCAUGUGAUCCUUAGGCUGUUGAAGCCUAUGUAGAAGGCGCAAAUU [jl-ex3.4.57 ViennaUCT mod] (Eterna round: R97, puzzle: Exclusion 3)	198	138				
AGGUGCCUCUGGAAACAUGAGGAUCACCCAUGUUGAGUUAGCGAGGAUAUCGGUAACCAUUGUUAUGAGAAGGCGCAAACCAGA [Ex NG3 #38] (Eterna round: R96, puzzle: Exclusion NG 3)	60.7	27.6		19.6		
GGACAUGCAGGAUAUGUAAAAUUUGACAUGAGGAUCACCCAUGUAGAUCCUGAAUUUCCUGCAGAAGGGCAUGUCC [Mat - Exclusion 5 - Eli Mod - D18] (Eterna round: R97, puzzle: Exclusion 5)	396	109				
CAGUACUGAGGAUAUACAUGAGGAUCACCCAUGUGUUCCAGCUAGGAAACUAGCAAGAGUAGAAGGCAGUACUG [salish99_ex3_r3_066] (Eterna round: R96, puzzle: Exclusion 3)	543	22.9		18.5		
AGUACUAACACGUAAGUGUUAGUACAAUAAGCUUGUGUUACAUGAGGAUCACCCAUGUCCUCAUAAGCUCGUCUUAU [Mat - Sensor v3 - Turn-off var 2 - D60] (puzzle: Sensor v3, turn-off variant 2)			77.6		134	150
ACAUGUCUUGUAGGAUAUAGUUGACAUGAGGAUCACCCAUGUUGAUUCAUGUCUAUGGAAACGGACUAGAAGGACGAGAAUAUG [Ex NG2 #17] (Eterna round: R96, puzzle: Exclusion NG 2)	50.5	25.9		25.3		
GAUUAUGCGAGCUUUAGGGACAUGAGGAUCACCCAUGUUCGUCUUAUUAAUCUGGGUGCGCUAACAUACCUAAAUCU [JMF 52] (puzzle: Sensor v3, turn-off variant 1)			113		56	87.4
AGCUGUGGCCGAGGAUAUCUAUCUUCAAUAACCGAAAUAUAAUCGGACAUGAGGAUCACCCAUGUAGAGAAGGCGGUCUCAGCA [Eli eng2 - 091] (Eterna round: R96, puzzle: Exclusion NG 2)				27.3		
AUUUUAAUAUAGGAUAUCGAAAUUAUUAUUUAACGAGAAGGAUGAACAUGAGGAUCACCCAUGUGGUAUCAUGG [Mat - Exclusion 6 - JL Mod - D31] (puzzle: Exclusion 6)			192			
AGGUGUAGAGGAUAUCUAUCCUCCCACAUGAGGAUCACCCAUGUCCUGGUCACCAAGGACGGAGAAGGCUACACCA [Omei Ex5 D19] (Eterna round: R97, puzzle: Exclusion 5)	153	292				
GACAUUUGAGGAUAUGCAGCUAGCUUCGUUUUCAAAUCGAGACAUGAGGAUCACCCAUGUAGAAGGCAAGGUCG [Eternabot (L1) Solution 88] (Eterna round: R97, puzzle: Exclusion 2)	29.4	31.9				
